Data set [1] in a line: Enzyme kinetic analysis of EcCD series fusion proteins, substrate 5-FC. It is filed as biochemical. The text has this: FIGS. 11A-11D show the activity and kinetics analysis of EcCD series fusion protein enzymes, and the EcCD series proteins are combined with 5-FC at different concentrations for reaction. Respectively calculate the 5-FU formation reaction rate shown in FIG. 11A, 5-FC consumption reaction rate shown in FIG. 10B, uracil formation reaction rate shown in FIG. 10C and cytosine consumption reaction rate shown in FIG. 10D, substitute Michaelis-Menten formula, and calculate the base mass (Kcat) and Km value catalyzed by each mol enzyme in unit time.

A short description of data set [2]: Enzyme kinetic analysis of EcCD series fusion proteins, substrate cytosine. The class given is biochemical. The text has this:
FIGS. 11A-11D show the activity and kinetics analysis of EcCD series fusion protein enzymes, and the EcCD series proteins are combined with 5-FC at different concentrations for reaction. Respectively calculate the 5-FU formation reaction rate shown in FIG. 11A, 5-FC consumption reaction rate shown in FIG. 10B, uracil formation reaction rate shown in FIG. 10C and cytosine consumption reaction rate shown in FIG. 10D, substitute Michaelis-Menten formula, and calculate the base mass (Kcat) and Km value catalyzed by each mol enzyme in unit time. […]

Data set [3] can be described thus: Relative substrate selectivity of cytosine deaminase enzyme for 5-FC and cytosine (formula 1). The class given is biochemical. The note with it: for [Kcat/Km(5-FC)]/{[Kcat/Km(cytosine)] + [Kcat/Km(5-FC)]}: relative substrate selectivity to 5-FC. The source says:
Evaluation of the relative substrate selectivity of cytosine deaminase enzyme for 5-FC and Cytosine can be expressed by the following formula 1,
The higher the value, the higher the selectivity of the enzyme to the 5-FC substrate.

A further data set concerns the target αvβ3 integrin (Homo sapiens, UniProt P05106+P06756). Description: ELISA binding of EcCD series fusion protein and αvβ3 integrin. The text has this: FIGS. 13A-13B show the binding activity and specificity test of EcCD fusion protein and αvβ3 integrin receptor. […] (***compared with untreated RGDfv group, P value<0.001, indicating a statistically significant difference)
To confirm the binding ability of RGD4C peptide and αvβ3 integrin, the affinity of the protein and αvβ3 integrin is confirmed by ELISA method. […] This experiment confirms that RGD4C-EcCD_WT and RGD4C-EcCD_D314A have the binding activity of αvβ3 integrin, and this binding has the specificity of RGD4C peptide αvβ3 integrin.
In general terms: ELISA stands for enzyme-linked immunosorbent assay.

For another data set, the system named is U87MG, HUVEC cells. Description: RGDfv peptide competition of EcCD fusion protein binding to cells. The settings on record: RGDfv peptide at 10-fold relative concentration. It is filed as cell-based, human. The method, then:
FIGS. 14A-14E show the binding activity and specificity test of EcCD fusion protein and U87MG, HUVEC and MCF-7 cell strain. […] (***compared to the untreated RGDfv group, P value<0.001, indicating a statistically significant difference)
It is confirmed from the above experimental results that the EcCD series protein fused to the RGD4C peptide has the binding activity with the expressing αvβ3 integrin cell strain, and the binding has the specificity of the RGD4C peptide and αvβ3 integrin of the cell expression, and also confirmed that the D314A mutation will not affect the binding activity of the RGD4C peptide and αvβ3 integrin.

Data set [4] deals with U87MG, HUVEC and MCF-7 cells. Description: Immunofluorescence of binding and distribution of EcCD fusion proteins in cells. The settings on record: 37° C., 2 hours. It is filed as cell-based, human. The procedure:
FIGS. 15A-15C show the binding and distribution of EcCD fusion proteins in U87MG, HUVEC and MCF-7 cell strain. The immunofluorescence staining is used to observe and experiment the EcCD fusion protein, which are respectively acted with U87MG cells in FIG. 15A, HUVEC cells in FIG. 15B and MCF-7 cells in FIG. 15C for 2 hours at 37° C., then fixed with 2% para-formadehyde, the fixed cells are first permeabilized with 0.1% Triton X-100 for 10 minutes, after that, cultured with 1% BSA blocking (dissolved in PBS containing Ca^2+, Mg^2+) for 1 hour at room temperature, then add a 1st antibody (Rabbit anti-His^6tag, Mouse anti-human CD51/61αvβ3 integrin), and then add a 2nd antibody (Anti-rabbit IgG-CF640R, Anti-mouse IgG-Alexa488), the protein distribution is observed by conjugated fluorescence microscope. (Green signal: αvβ3 integrin; red signal: anti-His^6tag; blue signal: Hoechst 33342 cell nucleus stain) (Scale bars: 20 μm)
Immunofluorescence is used to observe the distribution of the protein bound with cell in the cell. U87MG, HUVEC and MCF-7 cells act with culture medium containing EcCD_WT, RGD4C-EcCD_WT, EcCD_D314A and RGD4C-EcCD_D314A proteins at 37° C. for 2 hours, stain the cell, and observe protein distribution by the conjugated fluorescence microscopy.

The conditions of data set [5]: literature, Biochemistry 2004, 43, 8957-8964; cited from earlier work.
[6] abbreviates: 5-FC consumption (Table 5), listed as RGD4C-EcCDWT.
Where [7] appears, read: 5-FU generation, listed as RGD4C-EcCDWT.
Setting [8] is: cytosine consumption, listed as RGD4C-EcCDWT.
[9] abbreviates: uracil generation, listed as RGD4C-EcCDWT.

“And” between values parts separate entries of the source, which are not always exact repeats. Equal values may be shown once. Read-outs that look alike come from different tables or passages of the source.

For orientation: Km means the concentration of substrate that gives half-maximal velocity.

αvβ3 integrin, sequence (P06756 31-889 limits assumed): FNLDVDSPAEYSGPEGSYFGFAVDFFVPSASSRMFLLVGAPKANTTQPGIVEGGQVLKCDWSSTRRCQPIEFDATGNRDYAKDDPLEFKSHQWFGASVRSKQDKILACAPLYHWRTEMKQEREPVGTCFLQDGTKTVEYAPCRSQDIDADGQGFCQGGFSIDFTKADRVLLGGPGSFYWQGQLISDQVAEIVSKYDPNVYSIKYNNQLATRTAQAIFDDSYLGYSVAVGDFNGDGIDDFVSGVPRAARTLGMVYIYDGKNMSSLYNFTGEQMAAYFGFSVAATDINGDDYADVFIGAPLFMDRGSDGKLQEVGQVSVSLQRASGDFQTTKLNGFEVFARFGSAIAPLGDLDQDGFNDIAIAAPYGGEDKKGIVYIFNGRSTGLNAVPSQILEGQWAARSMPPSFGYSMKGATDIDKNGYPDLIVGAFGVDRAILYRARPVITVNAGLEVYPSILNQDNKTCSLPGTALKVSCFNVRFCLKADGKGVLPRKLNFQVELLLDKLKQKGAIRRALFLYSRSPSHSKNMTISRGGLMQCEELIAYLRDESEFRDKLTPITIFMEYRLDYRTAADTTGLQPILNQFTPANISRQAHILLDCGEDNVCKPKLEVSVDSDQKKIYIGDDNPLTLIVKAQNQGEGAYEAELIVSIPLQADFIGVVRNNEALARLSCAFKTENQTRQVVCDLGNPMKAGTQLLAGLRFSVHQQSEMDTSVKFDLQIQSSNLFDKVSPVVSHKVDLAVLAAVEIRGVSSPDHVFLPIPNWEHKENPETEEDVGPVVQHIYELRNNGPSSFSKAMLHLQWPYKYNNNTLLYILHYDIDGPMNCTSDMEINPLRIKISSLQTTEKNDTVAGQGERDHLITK
αvβ3 integrin, sequence (P06756 891-1048 partner limits assumed): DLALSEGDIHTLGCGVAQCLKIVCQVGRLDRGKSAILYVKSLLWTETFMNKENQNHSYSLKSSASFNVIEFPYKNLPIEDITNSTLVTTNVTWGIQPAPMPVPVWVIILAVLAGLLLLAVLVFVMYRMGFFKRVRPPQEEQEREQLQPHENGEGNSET
αvβ3 integrin, sequence (P05106 27-788): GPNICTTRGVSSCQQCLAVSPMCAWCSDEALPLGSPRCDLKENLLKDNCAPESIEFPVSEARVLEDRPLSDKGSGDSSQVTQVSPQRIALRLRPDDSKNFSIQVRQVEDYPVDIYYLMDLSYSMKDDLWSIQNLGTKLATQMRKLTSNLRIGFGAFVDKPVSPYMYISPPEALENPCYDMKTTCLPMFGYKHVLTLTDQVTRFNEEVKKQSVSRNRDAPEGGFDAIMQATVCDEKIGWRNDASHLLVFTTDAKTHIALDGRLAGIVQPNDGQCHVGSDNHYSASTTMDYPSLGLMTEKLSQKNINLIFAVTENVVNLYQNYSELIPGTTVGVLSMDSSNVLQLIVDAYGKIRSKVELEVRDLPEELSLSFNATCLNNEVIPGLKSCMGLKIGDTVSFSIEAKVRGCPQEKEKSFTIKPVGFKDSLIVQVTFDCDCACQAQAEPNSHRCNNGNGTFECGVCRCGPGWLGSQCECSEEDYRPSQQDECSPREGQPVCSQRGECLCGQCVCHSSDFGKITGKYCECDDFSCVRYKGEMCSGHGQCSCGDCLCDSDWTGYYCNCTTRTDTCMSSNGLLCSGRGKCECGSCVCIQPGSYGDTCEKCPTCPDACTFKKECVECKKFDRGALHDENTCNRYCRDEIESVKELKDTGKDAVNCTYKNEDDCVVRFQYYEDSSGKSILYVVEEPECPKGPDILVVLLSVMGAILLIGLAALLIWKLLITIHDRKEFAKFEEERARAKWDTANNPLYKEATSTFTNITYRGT

B1: RGD4C-EcCD_WT: targeted prodrug enzyme fusion protein (SEQ ID NO: 19) (protein)
chain: MGCDCRGDCFCMSNNALQTIINARLPGEEGLWQIHLQDGKISAIDAQSGVMPITENSLDAEQGLVIPPFVEPHIHLDTTQTAGQPNWNQSGTLFEGIERWAERKALLTHDDVKQRAWQTLKWQIANGIQHVRTHVDVSDATLTALKAMLEVKQEVAPWIDLQIVAFPQEGILSYPNGEALLEEALRLRADVVGAIPHFEFTREYGVESLHKTFALAQKYDRLIDVHCDEIDDEQSRFVETVAALAHHEGMGARVTASHTTAMHSYNGAYTSRLFRLLKMSGINFVANPLVNIHLQGRFDTYPKRRGITRVKEMLESGINVCFGHDDVFDPWYPLGTANMLQVLHMGLHVCQLMGYGQINDGLNLITHHSARTLNLQDYGIAAGNSANLIILPAENGFDALRRQVPVRYSVRGGKVIASTQPAQTTVYLEQPEAIDYKRLEHHHHHH
modifications: RGD4C_EcCD_WT
For B1, the Kcat in data set [1] (5-FC consumption (Table 5)) came out at 10.7 ± 0.5 s⁻¹; in data set [1] (setting [6]), 10.9 ± 0.5 s⁻¹; in data set [1] (5-FU generation), 10.8 ± 0.6 s⁻¹; in data set [1] (setting [7]), 10.8 ± 0.5 s⁻¹; in data set [2] (cytosine consumption), 148.9 ± 4.7 s⁻¹; in data set [2] (setting [8]), 143.9 ± 5.1 s⁻¹. Moreover, the Kcat in data set [2] (uracil generation) came to 141.7 ± 5.5 s⁻¹; in data set [2] (setting [9]), 150.8 ± 4.4 s⁻¹. Moreover, the Km stood at 2300 ± 400 µM in data set [1] (5-FC consumption (Table 5)); 2400 ± 400 µM in data set [1] (setting [6]); 2300 ± 500 µM in data set [1] (5-FU generation); 2400 ± 500 µM in data set [1] (setting [7]); 1700 ± 200 µM in data set [2] (cytosine consumption); 1600 ± 200 µM in data set [2] (setting [8]). In addition, the Km is 1500 ± 200 µM in data set [2] (uracil generation) and 1700 ± 100 µM in data set [2] (setting [9]). For the same molecule, the “[Kcat/Km(5-FC)]/{[Kcat/Km(cytosine)] + [Kcat/Km(5-FC)]}” value (“[Kcat/Km(5-FC)]/{[Kcat/Km(cytosine)] +” for short) in data set [3] turned out to be 0.047; in data set [3] (listed as RGD4C- EcCDWT), 0.048. The “inhibition of binding capacity by RGDfv peptide” value with αvβ3 integrin (RGDfv peptide at 10-fold concentration) is on record as “about 80%”; in the data set with αvβ3 integrin (RGDfv peptide at same concentration), “about 30%”. Besides, in the data set on U87MG, HUVEC cells, the “inhibition of binding by RGDfv peptide competition” value is “about 50%”. Besides, the “binding with cells” value in data set [4] is “have the ability of binding with U87MG and HUVEC cells”. In data set [4], the “internalization” value is recorded as “will enter the internalization”.

B2: EcCD_WT: E. coli. cytosine deaminase (EcCD), wild type, without target molecule (protein)
chain: MSNNALQTIINARLPGEEGLWQIHLQDGKISAIDAQSGVMPITENSLDAEQGLVIPPFVEPHIHLDTTQTAGQPNWNQSGTLFEGIERWAERKALLTHDDVKQRAWQTLKWQIANGIQHVRTHVDVSDATLTALKAMLEVKQEVAPWIDLQIVAFPQEGILSYPNGEALLEEALRLRADVVGAIPHFEFTREYGVESLHKTFALAQKYDRLIDVHCDEIDDEQSRFVETVAALAHHEGMGARVTASHTTAMHSYNGAYTSRLFRLLKMSGINFVANPLVNIHLQGRFDTYPKRRGITRVKEMLESGINVCFGHDDVFDPWYPLGTANMLQVLHMGLHVCQLMGYGQINDGLNLITHHSARTLNLQDYGIAAGNSANLIILPAENGFDALRRQVPVRYSVRGGKVIASTQPAQTTVYLEQPEAIDYKRLEHHHHHH
modifications: EcCD_WT
notes: E. coli. cytosine deaminase (EcCD), wild type, without target molecule
B2: the Kcat in data set [1] (5-FC consumption (Table 5)) was 9.2 ± 0.8 s⁻¹ and 8.8 ± 0.8 s⁻¹; in data set [1] (5-FU generation), 8.8 ± 0.9 s⁻¹ and 9.2 ± 0.6 s⁻¹; in data set [2] (cytosine consumption), 132.0 ± 5.0 s⁻¹; in data set [2] (uracil generation), 157.3 ± 2.4 s⁻¹. Also, the Km in data set [1] (5-FC consumption (Table 5)) is 2800 µM and 2700 µM; in data set [1] (5-FU generation), 2900 ± 800 µM; in data set [2] (cytosine consumption), 1300 ± 100 µM; in data set [2] (uracil generation), 1600 µM and 1700 µM. Also, the “[Kcat/Km(5-FC)]/{[Kcat/Km(cytosine)] +” value in data set [3] is 0.032; in data set [3] (listed as EcCDWT), 0.033; in data set [5], 0.027. Also, in data set [4], the “binding with cells” value is “do not have the ability of binding with U87MG and HUVEC cells”.

B3: EcCD_D314A: E. coli. cytosine deaminase (EcCD) mutant D314A, without target molecule (protein)
chain: MSNNALQTIINARLPGEEGLWQIHLQDGKISAIDAQSGVMPITENSLDAEQGLVIPPFVEPHIHLDTTQTAGQPNWNQSGTLFEGIERWAERKALLTHDDVKQRAWQTLKWQIANGIQHVRTHVDVSDATLTALKAMLEVKQEVAPWIDLQIVAFPQEGILSYPNGEALLEEALRLRADVVGAIPHFEFTREYGVESLHKTFALAQKYDRLIDVHCDEIDDEQSRFVETVAALAHHEGMGARVTASHTTAMHSYNGAYTSRLFRLLKMSGINFVANPLVNIHLQGRFDTYPKRRGITRVKEMLESGINVCFGHDAVFDPWYPLGTANMLQVLHMGLHVCQLMGYGQINDGLNLITHHSARTLNLQDYGIAAGNSANLIILPAENGFDALRRQVPVRYSVRGGKVIASTQPAQTTVYLEQPEAIDYKRLEHHHHHH
modifications: EcCD_D314A
notes: E. coli. cytosine deaminase (EcCD) mutant D314A, without target molecule
Consider B3, for which the Kcat in data set [1] (5-FC consumption (Table 5)) is 35.1 ± 1.7 s⁻¹ and 36.2 ± 1.5 s⁻¹; in data set [1] (5-FU generation), 36.2 ± 1.8 s⁻¹ and 35.4 ± 0.8 s⁻¹; in data set [2] (cytosine consumption) it was 22.3 ± 1.6 s⁻¹; in data set [2] (uracil generation), 24.5 ± 1.1 s⁻¹. The Km is 3800 µM and 4000 µM in data set [1] (5-FC consumption (Table 5)); 3900 ± 600 µM in data set [1] (5-FU generation); 2600 ± 400 µM in data set [2] (cytosine consumption); 3000 µM and 3100 µM in data set [2] (uracil generation). The “Kcat/Km higher than that of the corresponding WT protein” value in data set [1] (substrate 5-FC) is recorded as “about 3.1 times”. In data set [2] (substrate cytosine), the “Kcat/Km lower than that of the corresponding WT protein” value is recorded as “about 12.5 times”. The “relative substrate selectivity to 5-FC higher than the corresponding WT protein” value in data set [3] is on record as “about 17.4 times”. In addition, the “[Kcat/Km(5-FC)]/{[Kcat/Km(cytosine)] +” value in data set [3] was 0.558 and 0.535; in data set [5], 0.513. For the same molecule, the “binding with cells” value in data set [4] was “do not have the ability of binding with U87MG and HUVEC cells”.

The record behind these values is patent US10947270B2, “Targeted prodrug cytosine deaminase fusion carrier and application thereof” (National Yang-Ming University, priority 2015, dated 2021).
